Results as given in US20210128704A1 (UNIVERSITY OF MIAMI, published 2021).

Target: T1, ITPR1 (inositol 1,4,5-trisphosphate receptor type 1) (UniProt Q14643 1-2758, limits assumed)
T1 construct: Endogenous protein of the transfected cells, tested by co-immunoprecipitation and western blot
Experiment: co-immunoprecipitation with antibodies to the tag and western blot, HEK293 cells before and after forskolin
From the text: Overexpression of V5-Car10 and V5-CA10 inhibits ATP-induced free calcium release in vitro: ITPR1 contains functionally distinct domains, including the ‘modulatory’ domain responding to intracellular modulators such as calcium, calmodulin, ATP, and carbonic anhydrase-8 (Car8). ATP increases ITPR1-dependent calcium release by increasing the open probability of the channel in the presence of activating concentrations of IP3 and calcium. It is believed that Car8-mediated inhibition of ITPR1 activation and ATP-mediated calcium release requires binding to this modulatory domain. […] Co-immunoprecipitation of each protein with antibodies to V5 tag with ITPR1 and pITPR1 before and after forskolin stimulation of HEK293 cells was conducted.

T1 sequence (Q14643 whole entry): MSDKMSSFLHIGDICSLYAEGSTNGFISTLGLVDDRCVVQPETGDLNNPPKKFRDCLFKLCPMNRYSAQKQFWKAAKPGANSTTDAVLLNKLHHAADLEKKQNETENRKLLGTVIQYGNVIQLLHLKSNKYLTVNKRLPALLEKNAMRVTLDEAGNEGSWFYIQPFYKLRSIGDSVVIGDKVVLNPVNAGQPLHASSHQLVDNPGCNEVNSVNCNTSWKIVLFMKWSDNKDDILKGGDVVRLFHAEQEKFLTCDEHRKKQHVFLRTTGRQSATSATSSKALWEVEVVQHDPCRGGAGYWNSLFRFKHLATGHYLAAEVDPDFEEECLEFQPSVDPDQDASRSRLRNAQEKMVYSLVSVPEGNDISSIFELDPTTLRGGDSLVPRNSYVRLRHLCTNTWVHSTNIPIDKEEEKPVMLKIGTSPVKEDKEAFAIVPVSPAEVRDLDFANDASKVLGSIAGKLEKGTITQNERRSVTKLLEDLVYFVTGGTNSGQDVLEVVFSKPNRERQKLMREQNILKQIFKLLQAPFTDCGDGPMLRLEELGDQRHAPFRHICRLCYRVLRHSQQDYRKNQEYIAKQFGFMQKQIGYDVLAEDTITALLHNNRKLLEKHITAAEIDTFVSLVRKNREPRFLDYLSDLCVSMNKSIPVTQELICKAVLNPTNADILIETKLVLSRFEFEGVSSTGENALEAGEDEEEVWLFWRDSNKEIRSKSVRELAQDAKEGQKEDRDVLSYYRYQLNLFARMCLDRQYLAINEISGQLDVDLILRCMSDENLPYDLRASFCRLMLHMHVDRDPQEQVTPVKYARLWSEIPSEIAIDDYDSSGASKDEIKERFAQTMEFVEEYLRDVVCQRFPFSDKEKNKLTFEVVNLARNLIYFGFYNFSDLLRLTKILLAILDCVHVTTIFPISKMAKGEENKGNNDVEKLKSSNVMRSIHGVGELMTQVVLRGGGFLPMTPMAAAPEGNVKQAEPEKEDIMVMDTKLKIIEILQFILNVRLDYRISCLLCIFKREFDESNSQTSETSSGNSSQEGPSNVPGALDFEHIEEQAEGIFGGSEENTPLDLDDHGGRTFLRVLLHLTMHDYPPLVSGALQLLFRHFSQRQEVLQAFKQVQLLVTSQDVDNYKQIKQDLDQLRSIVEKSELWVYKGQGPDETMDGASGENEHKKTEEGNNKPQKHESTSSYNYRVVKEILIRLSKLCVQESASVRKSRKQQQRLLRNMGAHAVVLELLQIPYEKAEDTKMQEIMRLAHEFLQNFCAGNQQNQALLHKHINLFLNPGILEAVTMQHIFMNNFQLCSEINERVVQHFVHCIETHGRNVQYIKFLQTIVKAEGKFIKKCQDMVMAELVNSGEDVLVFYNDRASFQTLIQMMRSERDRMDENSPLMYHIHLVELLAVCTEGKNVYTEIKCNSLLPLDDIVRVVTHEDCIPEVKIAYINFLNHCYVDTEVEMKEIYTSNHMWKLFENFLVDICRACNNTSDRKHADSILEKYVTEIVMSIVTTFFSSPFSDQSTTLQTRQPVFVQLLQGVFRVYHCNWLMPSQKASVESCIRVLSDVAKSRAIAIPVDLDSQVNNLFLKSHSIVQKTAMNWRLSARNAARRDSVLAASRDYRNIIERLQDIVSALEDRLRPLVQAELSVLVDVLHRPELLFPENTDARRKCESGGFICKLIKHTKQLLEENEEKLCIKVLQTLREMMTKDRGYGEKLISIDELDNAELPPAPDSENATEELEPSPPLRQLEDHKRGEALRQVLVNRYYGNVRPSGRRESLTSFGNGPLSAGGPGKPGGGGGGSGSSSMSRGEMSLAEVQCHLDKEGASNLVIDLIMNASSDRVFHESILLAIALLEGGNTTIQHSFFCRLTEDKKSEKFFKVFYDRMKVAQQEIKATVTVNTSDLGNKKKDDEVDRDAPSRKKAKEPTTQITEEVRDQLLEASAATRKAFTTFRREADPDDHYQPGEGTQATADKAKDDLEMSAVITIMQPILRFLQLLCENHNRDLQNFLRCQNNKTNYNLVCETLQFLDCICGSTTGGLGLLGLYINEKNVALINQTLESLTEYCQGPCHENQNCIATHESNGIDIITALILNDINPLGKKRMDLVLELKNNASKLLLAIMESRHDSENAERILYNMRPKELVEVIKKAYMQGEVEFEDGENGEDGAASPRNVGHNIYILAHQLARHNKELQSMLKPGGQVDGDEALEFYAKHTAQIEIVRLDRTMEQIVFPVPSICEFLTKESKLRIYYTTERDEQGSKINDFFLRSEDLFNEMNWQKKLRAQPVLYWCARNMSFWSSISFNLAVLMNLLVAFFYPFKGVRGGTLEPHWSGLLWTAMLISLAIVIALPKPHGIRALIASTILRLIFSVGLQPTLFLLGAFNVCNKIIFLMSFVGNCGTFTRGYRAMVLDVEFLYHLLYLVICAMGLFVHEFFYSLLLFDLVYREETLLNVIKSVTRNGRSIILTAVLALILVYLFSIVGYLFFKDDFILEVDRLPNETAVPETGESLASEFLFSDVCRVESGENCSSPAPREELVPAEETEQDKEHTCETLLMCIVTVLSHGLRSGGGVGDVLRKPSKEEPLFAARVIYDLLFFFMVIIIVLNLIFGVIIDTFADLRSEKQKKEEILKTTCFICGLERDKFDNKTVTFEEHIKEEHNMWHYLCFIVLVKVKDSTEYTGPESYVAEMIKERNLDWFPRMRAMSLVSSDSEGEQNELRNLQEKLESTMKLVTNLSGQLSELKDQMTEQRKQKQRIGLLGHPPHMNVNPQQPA

binding result: no binding
B1: CA8-204 (carbonic anhydrase 8 fragment, alternative transcript product) (other, not shown: small tags and cut ends)
chain: MADLSFIEDTVAFPEKEEDEEEEEEGVEWGYEEGVEWGLVFPDANGEYQSPINLNSREARYDPSLLDVRLSPNYVVCRDCEVTNDGHTIQVILKSKSVLSGGPLPQGHEFELYEVRFHWGRENQRGSEHTVNFKAFPMEVRITNHLVKILFSE
notes: Expressed in HEK293 cells; also called CA8 fragment
